Assay results taken from publication PMC8809517, “Cofactor-independent RNA editing by a synthetic S-type PPR protein”.
Numbering of substitutions follows the chain as printed.

T1: GFP-9S library array, motif 4 ND N98C;D124W (synthetic construct, N98C;D124W)
T1 chain: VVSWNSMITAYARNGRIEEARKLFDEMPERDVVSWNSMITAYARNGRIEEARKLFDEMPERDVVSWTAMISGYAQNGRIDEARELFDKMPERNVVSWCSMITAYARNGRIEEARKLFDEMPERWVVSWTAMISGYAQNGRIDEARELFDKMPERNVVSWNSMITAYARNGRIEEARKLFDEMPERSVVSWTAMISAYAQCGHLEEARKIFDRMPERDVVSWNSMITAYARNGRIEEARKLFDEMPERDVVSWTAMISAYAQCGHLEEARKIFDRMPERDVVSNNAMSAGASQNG

T2: GFP-9S library array, motif 4 ND N98G;D124T (synthetic construct, N98G;D124T)
T2 chain: T1 chain with C98G, W124T

T3: GFP-9S library array, motif 4 ND N98L;D124C (synthetic construct, N98L;D124C)
T3 chain: T1 chain with C98L, W124C

T4: GFP-9S library array, motif 4 ND N98I;D124C (synthetic construct, N98I;D124C)
T4 chain: T1 chain with C98I, W124C

T5: GFP-9S library array, motif 4 ND N98R;D124T (synthetic construct, N98R;D124T)
T5 chain: T1 chain with C98R, W124T


Legend:
Assay in all cases: high-throughput RNA pulldown from lysate on Ni-NTA beads; HRP: 50 mM Tris pH 8, 150 mM NaCl, 1 mM beta-mercaptoethanol, 50 ug/ml BSA, 3 ug/ml yeast RNA, 0.5% heparin; ITC and FP: Tris pH 8, 200 mM KCl, 5% glycerol; MST: 50 mM Tris pH 8, 200 mM NaCl, 1 mM DTT, BSA, heparin, 0.05% Tween 20
Details in all cases: tags: N-terminal His-eGFP
[1] = molecular target: T1, GFP-9S library array, motif 4 ND …
[2] = molecular target: T2, GFP-9S library array, motif 4 ND …
[3] = molecular target: T3, GFP-9S library array, motif 4 ND …
[4] = molecular target: T4, GFP-9S library array, motif 4 ND …
[5] = molecular target: T5, GFP-9S library array, motif 4 ND …

Binder | Kd ([1]; label: 5' IRDye 800CW) | Kd ([2]; label: 5' IRDye 800CW) | Kd ([3]; label: 5' IRDye 800CW) | Kd ([4]; label: 5' IRDye 800CW) | Kd ([5]; label: 5' IRDye 800CW) | Kd ([1]; label: 5' Cy5) | Kd ([2]; label: 5' Cy5) | Kd ([3]; label: 5' Cy5) | Kd ([4]; label: 5' Cy5) | Kd ([5]; label: 5' Cy5)
AUUAUACGUGA (ssRNA) [IR-rpoA-U] | 234 nM | 236 nM | 60.2 nM | 32.9 nM | 85.9 nM |  |  |  |  | 
AUUACACGUGA (ssRNA) [Cy5-rpoA] |  |  |  |  |  | 86.1 nM | 169 nM | 89 nM | 182 nM | 74.7 nM
AUUAAACGUGA (ssRNA) [IR-rpoA-A] | 171 nM | 108 nM | 98.7 nM | 42.5 nM | 173 nM |  |  |  |  | 
AUUAGACGUGA (ssRNA) [Cy5-rpoA-G] |  |  |  |  |  | 84.9 nM | 436 nM | 70.4 nM | 90.6 nM | 98.5 nM
